The results in this text go back to patent US20030232781A1.

This data set has as its target T1, CTCF (full-length) (UniProt P49711).
T1 sequence: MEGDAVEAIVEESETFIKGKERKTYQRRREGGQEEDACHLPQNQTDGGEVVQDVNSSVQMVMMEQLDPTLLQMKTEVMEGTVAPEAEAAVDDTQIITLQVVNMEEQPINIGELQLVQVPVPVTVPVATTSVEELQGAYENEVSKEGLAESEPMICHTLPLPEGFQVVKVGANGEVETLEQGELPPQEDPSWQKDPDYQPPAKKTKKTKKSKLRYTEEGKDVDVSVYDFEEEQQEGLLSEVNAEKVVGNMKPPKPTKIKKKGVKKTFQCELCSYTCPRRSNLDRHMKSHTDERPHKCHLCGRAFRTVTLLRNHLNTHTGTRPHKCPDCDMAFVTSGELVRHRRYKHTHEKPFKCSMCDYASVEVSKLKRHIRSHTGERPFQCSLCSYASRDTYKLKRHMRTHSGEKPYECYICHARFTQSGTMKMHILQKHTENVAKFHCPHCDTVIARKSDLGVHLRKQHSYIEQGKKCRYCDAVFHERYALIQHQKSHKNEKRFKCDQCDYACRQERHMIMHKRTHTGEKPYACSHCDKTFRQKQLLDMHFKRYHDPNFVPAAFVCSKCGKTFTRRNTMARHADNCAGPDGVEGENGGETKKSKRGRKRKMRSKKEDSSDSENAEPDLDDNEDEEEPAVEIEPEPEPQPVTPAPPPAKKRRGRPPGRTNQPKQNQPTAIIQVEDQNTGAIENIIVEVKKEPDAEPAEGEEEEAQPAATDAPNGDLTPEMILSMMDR
In words: SPR. To be noted: 5mC at all CpG (SssI); at least 1000-fold lower than unmethylated; no stable complexes.

Consider “CGCGKGGTGGCAG (double strand) [DMD4 methylated]”, for which the Ka was 1e+08 M⁻¹. The same measure for “CGCGKGGTGGCAG (double strand) [DMD7 methylated]”: 1e+08 M⁻¹.
